Assays:
[1] = molecular target: T1, VEGF (vascular endothelial growth factor) (UniProt P15692-4 P15692-4:27-191); assay: competition; ED50, competition ELISA against biotin-labeled VEGF ligand on immobilized VEGF; printed 10^-9 M; conditions: chain copies: 2
[2] = molecular target: T1, VEGF (vascular endothelial growth …); assay: competition; apparent ED50, competition ELISA; printed 10^-7 M; conditions: chain copies: 2
Procedure: (§1) NX278-Liposome Complex was prepared by incubating NX-278 (1 mg) (FIG. 1N; SEQ ID NO: 19) with of a mixture of DSPC:cholesterol (50 mg) in 10 mM phosphate (pH 7.4) buffer containing 9% sucrose and sonicated for 15–30 min using a probe-type sonicator until opalescent solution was obtained. The control Nucleic Acid Ligand-Liposome Complex containing a sequence scrambled analog of ligand NX-278 (scNX278) (FIG. 1W; SEQ ID NO:28) was prepared in the same manner. The size of Liposome particles (typically […]), determined in a particle analyzer (Leeds & Northrup Model Microtrack UPA 150, Horsham, Pa.) was similar to those obtained in the absence of the Nucleic Acid Ligand.

[3] = molecular target: T1, VEGF (vascular endothelial growth …); assay: cell_activity; inhibition of HUVEC proliferation with 10 ng/ml VEGF; KS cells (KSY-1) IC50 about 100 nM; conditions: chain copies: 2
Procedure: The effects of NX278-liposome, scNX278-liposome and NX213 on the proliferation of human umbilical vein endothelial cells (HUVEC) and Kaposi's Sarcoma (KS) cells in tissue culture were examined. HUVECs were grown in the presence of VEGF (10 ng/ml) in IMDM:Ham's F12 (1:1) medium containing 10% fetal calf serum (FCS) and heparin (45 μg/ml). Cells were plated in 24-well gelatin-coated plates at a density of 20,000 cells per well on day zero and treated with the above ligands at concentrations between 0.1 nM to 1 μM on days 1, 2, and 3 (replacing the media along with the ligands). Cell count was performed on day 4. KS cell line KSY-1 was plated in 24-well gelatin coated plates at a density of 7,500–10,000 cells per well on day zero in medium containing RPMI 1640 supplemented with 2% FCS, L-glutamine, penicillin and streptomycin. Nucleic Acid Ligands were added at concentrations between 0.1 nM to 1 μM in fresh medium on day 1, 2, and 3 and the cell count was performed on day 4.

[4] = molecular target: T1, VEGF (vascular endothelial growth …); assay: 1 uM not inhibitory in guinea pig Miles assay; conditions: chain copies: 2
Excerpt: The ability of NX278-liposome to inhibit the vascular permeability activity of VEGF in vivo was examined.

[5] = molecular target: T1, VEGF (vascular endothelial growth …); assay: competition; not an effective competitor up to 2 uM; conditions: chain copies: 2
Procedure: as §1

[6] = molecular target: T2, bFGF (basic fibroblast growth factor) (UniProt P09038 P09038:143-288); assay: binding affinity stated as 1 nM; conditions: blunt-ended hairpin, Tm 68 C
[7] = molecular target: T2, bFGF (basic fibroblast growth factor); assay: 5'-32P binding assay; same affinity as unconjugated 225T3; conditions: label: 5'-32P; hairpin
Procedure: Preparation and Functional Properties of PEG Conjugated and Cholesterol-Derivatized Nucleic Acid Ligands A PEG 3400 conjugate of a Nucleic Acid Ligand retains the binding affinity of the non-conjugated molecule The ability of a bFGF ligand/PEG-3400 conjugate to bind bFGF was tested. Molecule 225T3 (SEQ ID NO: 10), a high affinity DNA ligand to bFGF, was chosen for conjugation with PEG via a primary amine-NHS coupling reaction. […] Ligand 225T3 was modified with a 3'-amino-modifier C7 CPG (Glen Research, Sterling, Va.) using standard DNA synthesis methods and will be referred to as 225T3N (SEQ ID NO:11). 225T3N was reacted with the N-hydroxysuccinimidyl (NHS) active ester of PEG (avg. MW 3400) in 20% (v/v) […] 80% (v/v) 0.5 M sodium bicarbonate buffered at pH 8.5. The resulting conjugate, 225T3N-PEG-3400 (SEQ ID NO: 14), was purified from the free DNA on a 12% polyacrylimide/7 M urea gel. The conjugate was 5' end-labeled with ^32P and a binding assay was performed.

[8] = molecular target: T2, bFGF (basic fibroblast growth factor); assay: 5'-32P binding assay; identical to 225T3; conditions: label: 5'-32P; hairpin

T1 sequence (P15692 other isoform, or with tags, fused parts or gaps): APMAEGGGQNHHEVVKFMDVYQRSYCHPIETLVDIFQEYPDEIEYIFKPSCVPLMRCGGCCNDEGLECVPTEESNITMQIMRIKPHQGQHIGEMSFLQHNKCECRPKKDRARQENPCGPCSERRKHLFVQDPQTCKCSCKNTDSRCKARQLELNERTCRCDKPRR
T2 sequence (P09038 143-288, one chain of several): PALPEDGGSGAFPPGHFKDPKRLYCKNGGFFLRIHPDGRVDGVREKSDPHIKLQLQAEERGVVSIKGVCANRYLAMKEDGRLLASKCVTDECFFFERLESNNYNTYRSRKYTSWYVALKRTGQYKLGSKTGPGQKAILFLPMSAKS

TTTTACCCUGAUGGUAGACGCCGGGGUGTTTTT (mixed) [NX213]
EC50 [1]: ~1 nM

TTTTACCCUGAUGGUAGACGCCGGGGUGTTTTT (mixed, 5'-dialkylglycerol (DAG), embedded in DSPC:cholesterol liposome) [NX278-liposome]
EC50 [2]: ~100 nM
IC50 [3]: ~300 nM

TTTTGUCGGUACGGAGUGGACCGUCACGTTTTT (mixed, dialkylglycerol (DAG), embedded in DSPC:cholesterol liposome) [scNX278-liposome]
binding result [4]: no binding
EC50 [5]: > 2000 nM

GCGGGGCTACGTACCGGGGCTTTGTAAAACCCCGC (ssDNA) [225T3]
Kd [6]: 1 nM

GCGGGGCTACGTACCGGGGCTTTGTAAAACCCCGC (ssDNA, 3'-amino modifier C7 coupled to PEG (avg. MW 3400)) [225T3N-PEG-3400]
Kd [7]: 1 nM

GCGGGGCTACGTACCGGGGCTTTGTAAAACCCCGC (ssDNA, 3'-tetraethyleneglycol cholesterol) [225T3-Cholesterol]
Kd [8]: 1 nM

Reference: US6147204, “Nucleic acid ligand complexes” (NeXstar Pharmaceuticals, Inc.)
